From publication PMC10397247

What was measured:
[1] = target: T1, 4H3129-bN; test: two-hybrid library CCNG1;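 further: natural log of median RNA to DNA barcode read ratio; higher means stronger binding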
T1 chain: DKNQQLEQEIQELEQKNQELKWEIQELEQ

[2] = target: T2, 4H3172-bN; test: two-hybrid library CCNG1;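 further: natural log of median RNA to DNA barcode read ratio; higher means stronger binding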
T2 chain: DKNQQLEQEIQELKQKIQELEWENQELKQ

[3] = target: T3, 4H3414-bN; test: two-hybrid library CCNG1;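 further: natural log of median RNA to DNA barcode read ratio; higher means stronger binding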
T3 chain: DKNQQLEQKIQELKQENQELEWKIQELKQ

[4] = target: T4, 4H3631-bN; test: two-hybrid library CCNG1;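 further: natural log of median RNA to DNA barcode read ratio; higher means stronger binding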
T4 chain: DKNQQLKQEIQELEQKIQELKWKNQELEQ

[5] = target: T5, 4H3638-bN; test: two-hybrid library CCNG1
T5 chain: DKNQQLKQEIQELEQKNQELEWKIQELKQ

[6] = target: T6, 4H3817-bN; test: two-hybrid library CCNG1
T6 chain: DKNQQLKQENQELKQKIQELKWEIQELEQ

[7] = target: T7, 4H3974-bN; test: two-hybrid library CCNG1
T7 chain: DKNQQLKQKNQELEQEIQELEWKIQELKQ

[8] = target: T8, 4H570-bN; test: two-hybrid library CCNG1
T8 chain: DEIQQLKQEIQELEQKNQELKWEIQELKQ

[9] = target: T9, 4H584-bN; test: two-hybrid library CCNG1
T9 chain: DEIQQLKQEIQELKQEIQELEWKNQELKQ

[10] = target: T10, 4H619-bN; test: two-hybrid library CCNG1
T10 chain: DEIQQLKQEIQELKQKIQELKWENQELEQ

[11] = target: T11, 4H850-bN; test: two-hybrid library CCNG1
T11 chain: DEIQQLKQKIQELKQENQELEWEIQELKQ

[12] = target: T12, 4H906-bN; test: two-hybrid library CCNG1
T12 chain: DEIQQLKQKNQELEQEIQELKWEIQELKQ

[13] = target: T13, 4H2697-bA; test: two-hybrid library CCNG1
T13 chain: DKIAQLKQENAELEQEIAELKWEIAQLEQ

[14] = target: T14, 4H3041-bH; test: two-hybrid library CCNG1
T14 chain: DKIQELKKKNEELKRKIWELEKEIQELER

[15] = target: T15, 4H3189-bA; test: two-hybrid library CCNG1
T15 chain: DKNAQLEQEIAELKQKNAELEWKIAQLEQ

[16] = target: T16, 4H331-bA; test: two-hybrid library CCNG1
T16 chain: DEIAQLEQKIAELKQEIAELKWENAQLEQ

[17] = target: T17, 4H3606-bA; test: two-hybrid library CCNG1
T17 chain: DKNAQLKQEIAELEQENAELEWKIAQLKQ

[18] = target: T18, 4H370-bA; test: two-hybrid library CCNG1
T18 chain: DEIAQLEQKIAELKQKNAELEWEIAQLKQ

[19] = target: T19, 4H3782-bA; test: two-hybrid library CCNG1
T19 chain: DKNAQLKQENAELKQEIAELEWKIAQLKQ

[20] = target: T20, 4H3843-bA; test: two-hybrid library CCNG1
T20 chain: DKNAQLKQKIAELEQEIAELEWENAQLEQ

[21] = target: T21, 4H4001-bA; test: two-hybrid library CCNG1
T21 chain: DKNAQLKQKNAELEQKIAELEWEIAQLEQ

[22] = target: T22, 4H462-bA; test: two-hybrid library CCNG1
T22 chain: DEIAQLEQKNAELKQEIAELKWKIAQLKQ

[23] = target: T23, 4H568-bA; test: two-hybrid library CCNG1
T23 chain: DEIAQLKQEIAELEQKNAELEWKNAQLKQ

[24] = target: T24, 4H607-bA; test: two-hybrid library CCNG1
T24 chain: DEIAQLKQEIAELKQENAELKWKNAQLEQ

[25] = target: T25, 4H687-bA; test: two-hybrid library CCNG1
T25 chain: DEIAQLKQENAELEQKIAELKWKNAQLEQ

[26] = target: T26, 4H72-bA; test: two-hybrid library CCNG1
T26 chain: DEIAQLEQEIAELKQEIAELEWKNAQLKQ

[27] = target: T27, 4H797-bA; test: two-hybrid library CCNG1
T27 chain: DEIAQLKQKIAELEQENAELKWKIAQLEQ

[28] = target: T28, 4H883-bA; test: two-hybrid library CCNG1
T28 chain: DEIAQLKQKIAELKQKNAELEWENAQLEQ

[29] = target: T29, 4H918-bA; test: two-hybrid library CCNG1
T29 chain: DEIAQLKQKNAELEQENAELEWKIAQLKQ

[30] = target: T30, 4H953-bA; test: two-hybrid library CCNG1
T30 chain: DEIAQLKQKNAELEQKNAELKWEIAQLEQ

[31] = target: T31, 4H967-bA; test: two-hybrid library CCNG1
T31 chain: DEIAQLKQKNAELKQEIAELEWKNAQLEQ

[32] = target: T32, O3-bH; test: two-hybrid library CCNG1
T32 chain: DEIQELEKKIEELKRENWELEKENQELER

[33] = target: T33, O4-bH; test: two-hybrid library CCNG1
T33 chain: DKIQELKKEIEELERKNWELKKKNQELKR

[34] = target: T34, O5-bH; test: two-hybrid library CCNG1
T34 chain: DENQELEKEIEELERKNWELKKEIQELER

[35] = target: T35, O6-bH; test: two-hybrid library CCNG1
T35 chain: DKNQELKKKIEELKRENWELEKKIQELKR

[36] = target: T36, O7-bH; test: two-hybrid library CCNG1
T36 chain: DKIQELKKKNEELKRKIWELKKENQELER

[37] = target: T37, O8-bH; test: two-hybrid library CCNG1
T37 chain: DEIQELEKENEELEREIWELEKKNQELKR

[38] = target: T38, O8-bP; test: two-hybrid library CCNG1
T38 chain: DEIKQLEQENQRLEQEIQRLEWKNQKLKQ

[39] = target: T39, O9-bH; test: two-hybrid library CCNG1
T39 chain: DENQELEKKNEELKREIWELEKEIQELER

[40] = target: T40, APC2556-AA; test: two-hybrid library CCmax
T40 chain: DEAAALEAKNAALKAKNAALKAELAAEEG

[41] = target: T41, APC2724-AA; test: two-hybrid library CCmax; details: mean of both orientations
T41 chain: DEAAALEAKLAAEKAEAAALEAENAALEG

[42] = target: T42, APC2811-AA; test: two-hybrid library CCmax; details: mean of both orientations
T42 chain: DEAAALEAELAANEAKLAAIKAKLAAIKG

[43] = target: T43, APC2981-AA; test: two-hybrid library CCmax; details: mean of both orientations
T43 chain: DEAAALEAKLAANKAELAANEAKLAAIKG

[44] = target: T44, APC3265-AA; test: two-hybrid library CCmax; details: mean of both orientations
T44 chain: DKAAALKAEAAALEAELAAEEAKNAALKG

[45] = target: T45, APC3323-AA; test: two-hybrid library CCmax; details: mean of both orientations
T45 chain: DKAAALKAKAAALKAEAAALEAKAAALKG

[46] = target: T46, APC3354-AA; test: two-hybrid library CCmax; details: mean of both orientations
T46 chain: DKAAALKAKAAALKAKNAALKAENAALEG

[47] = target: T47, APC3881-AA; test: two-hybrid library CCmax; details: mean of both orientations
T47 chain: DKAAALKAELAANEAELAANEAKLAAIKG

[48] = target: T48, APC4100-AA; test: two-hybrid library CCmax; details: mean of both orientations
T48 chain: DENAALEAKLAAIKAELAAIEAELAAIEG

[49] = target: T49, APC4336-AA; test: two-hybrid library CCmax; details: mean of both orientations
T49 chain: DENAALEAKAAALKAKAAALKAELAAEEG

[50] = target: T50, APC5009-AA; test: two-hybrid library CCmax; details: mean of both orientations
T50 chain: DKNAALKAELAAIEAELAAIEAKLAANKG

[51] = target: T51, APC542-AA; test: two-hybrid library CCmax; details: mean of both orientations
T51 chain: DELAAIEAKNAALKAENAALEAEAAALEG

[52] = target: T52, APC5531-AA; test: two-hybrid library CCmax; details: mean of both orientations
T52 chain: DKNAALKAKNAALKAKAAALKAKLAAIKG

[53] = target: T53, APC6088-AA; test: two-hybrid library CCmax; details: mean of both orientations
T53 chain: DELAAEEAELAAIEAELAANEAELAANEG

[54] = target: T54, APC7524-AA; test: two-hybrid library CCmax; details: mean of both orientations
T54 chain: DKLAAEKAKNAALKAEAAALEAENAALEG

[55] = target: T55, APC8401-AA; test: two-hybrid library CCmax; details: mean of both orientations
T55 chain: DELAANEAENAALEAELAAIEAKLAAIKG

[56] = target: T56, APC8516-AA; test: two-hybrid library CCmax; details: mean of both orientations
T56 chain: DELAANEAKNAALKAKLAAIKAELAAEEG

[57] = target: T57, APC9141-AA; test: two-hybrid library CCmax; details: mean of both orientations
T57 chain: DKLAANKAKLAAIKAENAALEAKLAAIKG

[58] = target: T58, APC9182-AA; test: two-hybrid library CCmax; details: mean of both orientations
T58 chain: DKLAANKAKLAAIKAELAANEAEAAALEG

[59] = target: T59, APC9291-AA; test: two-hybrid library CCmax; details: mean of both orientations
T59 chain: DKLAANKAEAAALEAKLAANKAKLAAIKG

[60] = target: T60, APC9806-AA; test: two-hybrid library CCmax; details: mean of both orientations
T60 chain: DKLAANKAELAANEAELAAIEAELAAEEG

[61] = target: T61, 4H470-bN; test: two-hybrid library CCNG1
T61 chain: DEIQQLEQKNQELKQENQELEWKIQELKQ

B1: 4H3129-bN (peptide)
chain: DKNQQLEQEIQELEQKNQELKWEIQELEQ
[1]
  interaction score: -0.749
[2]
  interaction score: -0.806
[3]
  interaction score: 1.09
[4]
  interaction score: -1.47
[5]
  interaction score: -1.26
[6]
  interaction score: -1.45
[7]
  interaction score: -0.744
[8]
  interaction score: -0.835
[9]
  interaction score: -1.09
[10]
  interaction score: -0.774
[11]
  interaction score: -1.41
[12]
  interaction score: -1.2

B2: 4H2697-bA (peptide)
chain: DKIAQLKQENAELEQEIAELKWEIAQLEQ
[13]
  interaction score: -0.377
[14]
  interaction score: 1.02
[15]
  interaction score: -1.34
[16]
  interaction score: -1.52
[17]
  interaction score: -1.7
[18]
  interaction score: -1.13
[19]
  interaction score: 0.993
[20]
  interaction score: -0.367
[21]
  interaction score: -0.951
[22]
  interaction score: 2.04
[23]
  interaction score: -1.82
[24]
  interaction score: -1.17
[25]
  interaction score: -1.08
[26]
  interaction score: -1.03
[27]
  interaction score: -0.734
[28]
  interaction score: -1.53
[29]
  interaction score: -0.926
[30]
  interaction score: -1.44
[31]
  interaction score: -0.359

B3: O2-bH (peptide)
chain: DENQELEKKNEELKRKIWELKKKIQELKR
[32]
  interaction score: 0.993
[33]
  interaction score: -0.611
[34]
  interaction score: -1.53
[35]
  interaction score: 0.712
[36]
  interaction score: -0.662
[37]
  interaction score: 0.211
[38]
  interaction score: -0.645
[39]
  interaction score: 0.854

B4: APC2556-AA (peptide)
chain: DEAAALEAKNAALKAKNAALKAELAAEEG
[40]
  interaction score: -1.78
[41]
  interaction score: -1.65
[42]
  interaction score: -1.73
[43]
  interaction score: -1.98
[44]
  interaction score: -1.69
[45]
  interaction score: -1.82
[46]
  interaction score: -1.9
[47]
  interaction score: -1.61
[48]
  interaction score: -2.2
[49]
  interaction score: -1.77
[50]
  interaction score: -1.65
[51]
  interaction score: -1.72
[52]
  interaction score: -1.7
[53]
  interaction score: -1.75
[54]
  interaction score: -2.09
[55]
  interaction score: -1.48
[56]
  interaction score: -2.01
[57]
  interaction score: -1.94
[58]
  interaction score: -1.74
[59]
  interaction score: -1.79
[60]
  interaction score: -2.15

B5: 4H470-bN (peptide)
chain: DEIQQLEQKNQELKQENQELEWKIQELKQ
[61]
  interaction score: -0.484

B6: O3-bH (peptide)
chain: DEIQELEKKIEELKRENWELEKENQELER
[32]
  interaction score: -0.176
[33]
  interaction score: 2.01
[34]
  interaction score: -0.92
[35]
  interaction score: -0.104
[36]
  interaction score: -0.247
[37]
  interaction score: 0.212
[39]
  interaction score: -0.716
